We go through 24 molecules from US20220112288A1 (published 2022).

B1: 75110_02E08A (antibody, V domains shown)
VH: QVQLQESGPGLVKPSETLSLTCTVSGGSISTYYWTWIRQPAGKGLEWIGRVYTSGDTNYNPSLKSRVAMSLDTSKNQFSLKLSSVTAADTAVYYCARDSGALYSWNYGDAFDIWGQGTMVTVSS
VL: DIQMTQSPSAMSASVGDRVTITCRASQDISNYLAWFQQKPGKVPKRLIYAASSLQSGVPSRFSGSGSGTEFTLTISSLQPEDFATYYCLQHNSYPRTFGQGTKVEIK
notes: Tested as non-clonal AlivaMab Mouse Kappa hybridoma supernatant, captured by anti-mouse IgG Fc sensor
B2: 75110_03L12A (antibody, V domains shown)
VH: QVQLQQWGAGLLKPSETLSLTCAVYGGSFSGYYWSWIRQPPGKGLEWIGEINHSGSTNYNPSLKSRVTISVDTSENQFSLTLISVTAADTAVYYCVRLINWFDPWGQGTLVTVSS
VL: DIQMTQSPSSVSASVGDRVTITCRASQDISNWLAWYQQKPGKAPKLLIFAASSLQSGVPSRFSGSGSGTDFTLTISSLQPDDFATYYCQQANSFPYTFGQGTNLGIK
notes: as for B1
B3: 75110_13P21A (antibody, V domains shown)
VH: B2 VH with Y25S, Y59C, E75N, T81K, I83S, V96A, L98V, I99L, W101Y, P104Y
VL: DIQMTQSPSSVSASVGDRVTITCRASPDIANWLAWYQQKPGKAPELLIYAASSLQSGVPSRFSGSGSGTDFTLTISSLQPEDFATYFCQQANSFPLTFGGGTKVESK
notes: as for B1
B4: 75110_06D16A (antibody, V domains shown)
VH: B2 VH with D72V, E75K, T81K, I83S, V96A, L98V, I99L
VL: B3 VL with P27Q, N31D, E45K, L54F, L96Y, G100Q, V104L, S106I
notes: as for B1
B5: 75110_12K21A (antibody, V domains shown)
VH: B2 VH with Y25S, Y59C, E75N, T81K, I83S, V96A, L98V, I99L, W101Y, P104Y
VL: B3 VL
notes: as for B1
B6: 75110_01D24A (antibody, V domains shown)
VH: B2 VH with T81K, I83N, V96A, I99V
VL: B2 VL with D1E, K45N, S56T, T97S
notes: as for B1
B7: 75110_13C13A (antibody, V domains shown)
VH: QVQLQQWGAGLLKPSETLSLTCAVSGGSFSGYYWSWIRQPPGKGLEWIGEINHSGSTNCNPSLKSRVTISVDTSKNQFSLKLSSVTAADTAMYYCARVLNFFDYWGQGTLVTVSS
VL: B3 VL with S7T, D28G, A30S
notes: as for B1
B8: 75110_04B08A (antibody, V domains shown)
VH: QVQLVESGGGVVQPGRSLRLSCTASGFNFINYGIHWVRQAPGKGLEWVTIIWYDGSKKYYADSVKGRFAISRDNSKNTLYLQMNSLRAEDTAVYYCAREDDWNDGLAYWGQGTLVTVSS
VL: AIQMTQSPSSLSASVGDRVTITCRASQDIRNDLGWYQQKPGKAPNLLIYAASNLQSGVPSRFSGSGSGTDFTLTISSLQPEDFATYYCLQDSNYPRTFGQGTKVEIK
notes: as for B1
B9: 75110_02N15A (antibody, V domains shown)
VH: EVQLVESGGGLVQPGGSLRLSCAASGFTFSSYWMSWVRQAPGKGLEWVANINEDGNEKYYVDSVKGRFTISRDNAKNSLFLQMNSLRAEDTAVYFCAREGGQWLALDHWGQGALVTVSS
VL: DIQMTQSPSSVSASVGDRVTITCRASQGISSWLAWYQQKPGKAPKFLISGASSLQSGVPSRFSGSGSGTDFTLTISSLQPEDFATYYCQQANSFPWTFGQGTKVEFK
notes: as for B1
B10: 75110_01J09A (antibody, V domains shown)
VH: B9 VH with A23V, I51T, N52K, N56S, E57D, S71C, F80Y, F95Y, H108Y, A113T
VL: B9 VL with T22N, K45N, F46L, S49F, S67F, T72S, S76T, S77T, Y87H, F106I
notes: as for B1
B11: 75110_03C01A (antibody, V domains shown)
VH: B7 VH with S25Y, P40S, H53Q, C59Y, N76D, M92V, L99I, F101W, Y104S, T109S
VL: B9 VL with K42N, F46L, S49Y, G50D, L54F, P80T, W96Y, V104L, F106I
notes: as for B1
B12: 75110_05B13A (antibody, V domains shown)
VH: QVLLEQWGAGLLKPSETLSLTCAVYGGSFSGYYWTWIRQPPGKGLEWIGEINHRGSTNYNPSLKSRVTISIDTSKNQFSLKVKSVTAADTAMYYCTRPDSNWFDPWGQGTLVTVSS
VL: B3 VL with P27Q, A30S, E45K, Y49F, F87Y, S106I
notes: as for B1
B13: 75110_13P22A (antibody, V domains shown)
VH: B7 VH with V24A, S25Y, P40S, H53Q, S56N, C59Y, V71A, M92V, F101W, T109I
VL: B2 VL with D28G, N31D, P40S, K45D, D81E, N103K, G105E
notes: as for B1
B14: 75110_05L07A (antibody, V domains shown)
VH: B9 VH with E53Q, N56S, E57D, A75V, F80Y, M83I, F95Y, A105T, H108Y, A113T
VL: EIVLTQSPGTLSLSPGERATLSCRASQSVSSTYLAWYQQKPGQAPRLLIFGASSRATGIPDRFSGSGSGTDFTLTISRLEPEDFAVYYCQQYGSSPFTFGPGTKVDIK
notes: as for B1
B15: 75110_04P08A (antibody, V domains shown)
VH: QVQLQQWGAGLLKPSETLSLTCAVYGGSLSGYYWSWIRQSPGKGLEWIGEINQSGSTNYNPSLKSRVTISVDTSKDQFSLRLTSVTAADTAVYYCTRVLNWFDPWGRGTLVTVSS
VL: B2 VL with I21L, F49Y, P80T, D81E, N103K, G105E
notes: as for B1
B16: 75110_12H19A (antibody, V domains shown)
VH: B9 VH with K43Q, Y60H, F68L, F80Y, A88G, E89V, H108Y
VL: B9 VL with T20S, F46L, S49Y, S53G, F106I
notes: as for B1
B17: 75110_04K10A (antibody, V domains shown)
VH: B9 VH with E53Q, N56S, F80Y, M83L, V93M, F95Y, A105S, H108Y, A113T
VL: B9 VL with F46V, S49Y, A51V, L54F, T72I, F106I
notes: as for B1
B18: 75110_09N20A (antibody, V domains shown)
VH: B9 VH with N56S, F80Y, F95Y, A97V, H108Y, A113T
VL: B9 VL with F46L, S49Y, G50A, R61S, S76N, E105A, F106I
notes: as for B1
B19: 75110_07B16A (antibody, V domains shown)
VH: B15 VH with L29F, R81K, T83S, T96A, L99I, P104S, R107Q, T109S
VL: B2 VL with D28G, N31S, F49Y, A50D, L54F, P80T, N103K, G105E
notes: as for B1
B20: 75110_09G15A (antibody, V domains shown)
VH: B9 VH with S31D, E53Q, N56S, Y60S, F80Y, V93I, Y94F, F95Y, H108Y, A113T
VL: B9 VL with F46L, S49Y, S76N, A84T, S93I, F106I
notes: as for B1
B21: 75110_07H07A (antibody, V domains shown)
VH: B9 VH with L4V, N52K, D54E, N56S, F80Y, F95Y, A97V, H108Y, A113T
VL: B9 VL with A13G, F46L, S49F, E105Q, F106I
notes: as for B1
B22: 75110_12H17A (antibody, V domains shown)
VH: B9 VH with S31D, N52K, F95Y, H108Y
VL: B9 VL with S63T, F106I
notes: as for B1
B23: 75110_12C19A (antibody, V domains shown)
VH: B9 VH with N52K, N56S, E57D, F80Y, Y94H, F95Y, A97V, H108Y, A113T
VL: B9 VL with A13G, F46L, S49Y, A84V, F106I
notes: as for B1
B24: 75110_03D16A (antibody, V domains shown)
VH: B9 VH with E53Q, N56G, F80Y, F95Y, A97V, H108Y, A113T
VL: B9 VL with A34T, S49Y, G50A, S67F, F106I
notes: as for B1

Residue numbers refer to the chain shown, from its start. Bounds are passed on as bounds.

The target of one assay is T1, Recombinant human CD4 (R&D Systems, Cat. 10327-CD) (human, UniProt P01730 26-390, limits assumed).
T1 construct: Bought reagent; also called huCD4
The assay can be described thus: BLI Octet, non-clonal supernatant on AMC sensor, 100 nM human CD4, 1:1 local fit.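 Note: Single-concentration kinetics per supernatant, with the 1:1 model fitted across both the association and dissociation phases of the sensorgram.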 Background: Biolayer interferometry detects binding as a change in optical thickness at a sensor tip.
For B1, the Kd is 1.5 nM, the koff worked out at 0.00051 s⁻¹ and the kon worked out at 330000 M⁻¹ s⁻¹.
For B2, the dissociation constant Kd is 2.8 nM, the dissociation rate constant (koff) turned out to be 0.00048 s⁻¹ and the kon came out at 170000 M⁻¹ s⁻¹.
Turning to B3, the dissociation constant Kd stood at 2.04 nM, the koff was found to be 0.000315 s⁻¹ and the association rate constant (kon) was determined as 154000 M⁻¹ s⁻¹.
Consider B4, for which the Kd came to 2.5 nM, the off-rate constant (koff) came out at 0.00047 s⁻¹ and the kon turned out to be 190000 M⁻¹ s⁻¹.
In the same order, the values of B5 are 3 nM, 0.0006 s⁻¹ and 200000 M⁻¹ s⁻¹.
As to B6, the Kd was determined as 1.1 nM, the koff is 0.00013 s⁻¹ and the on-rate constant (kon) was determined as 110000 M⁻¹ s⁻¹.
For B7, in that order: 3.2 nM, 0.00051 s⁻¹ and 160000 M⁻¹ s⁻¹.
For B8, the Kd came out at 5.2 nM, the koff was found to be 0.0012 s⁻¹ and the on-rate (kon) is 230000 M⁻¹ s⁻¹.
For B9, in that order: 6.7 nM, 0.00069 s⁻¹ and 100000 M⁻¹ s⁻¹.
Consider B10, for which the Kd amounted to 11 nM, the koff worked out at 0.0013 s⁻¹ and the kon amounted to 120000 M⁻¹ s⁻¹.
B11: the Kd is < 0.001 nM, the off-rate (koff) is < 1e-07 s⁻¹ and the on-rate constant (kon) was determined as 150000 M⁻¹ s⁻¹.
For B12, in that order: < 0.001 nM, < 1e-07 s⁻¹ and 200000 M⁻¹ s⁻¹.
Take B13: the Kd stood at 0.68 nM, the koff came to 0.00013 s⁻¹ and the kon was 190000 M⁻¹ s⁻¹.
In the case of B14, the Kd came out at 13 nM, the koff was 0.0014 s⁻¹ and the on-rate (kon) stood at 100000 M⁻¹ s⁻¹.
In the case of B15, the dissociation constant Kd came out at 1.8 nM, the dissociation rate constant (koff) amounted to 0.00022 s⁻¹ and the on-rate constant (kon) was 120000 M⁻¹ s⁻¹.
With B16, the Kd was 4.2 nM, the koff stood at 0.0012 s⁻¹ and the kon came to 290000 M⁻¹ s⁻¹.
For B17, the equilibrium dissociation constant (Kd) is 6.3 nM, the koff turned out to be 0.0018 s⁻¹ and the association rate constant (kon) was 290000 M⁻¹ s⁻¹.
For B18, the dissociation constant Kd is 15 nM, the koff turned out to be 0.0019 s⁻¹ and the kon worked out at 130000 M⁻¹ s⁻¹.
Regarding B19, the Kd is 0.79 nM, the off-rate constant (koff) turned out to be 0.00013 s⁻¹ and the association rate constant (kon) came out at 160000 M⁻¹ s⁻¹.
Consider B20, for which the Kd is 290 nM, the koff is 0.011 s⁻¹ and the kon was determined as 37000 M⁻¹ s⁻¹.
For the molecule B21, the Kd stood at 3.1 nM, the off-rate constant (koff) was 0.00035 s⁻¹ and the kon came out at 110000 M⁻¹ s⁻¹.
Turning to B22, the Kd is 9.6 nM, the koff was 0.0032 s⁻¹ and the on-rate (kon) amounted to 330000 M⁻¹ s⁻¹.
For B23, the Kd stood at 0.627 nM, the dissociation rate constant (koff) came out at 9.63e-05 s⁻¹ and the association rate constant (kon) is 154000 M⁻¹ s⁻¹.
Regarding B24, the Kd was 6 nM, the koff was 0.0013 s⁻¹ and the association rate constant (kon) is 220000 M⁻¹ s⁻¹.

The target in another assay is T1, Recombinant human CD4 (R&D Systems, …). The assay can be described thus: BLI Octet, non-clonal supernatant on AMC sensor, 100 nM human CD4.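 Note: hybridoma supernatants diluted 1:3, antibodies captured on AMC biosensors, association and dissociation with CD4 followed, curves smoothed and fit locally with 1:1 binding model for single-point kinetics.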
Take B1: the Response stood at 0.08.
As for B2, the Response is 0.21.
In the case of B3, the Response amounted to 0.12.
On to B4, for which the Response was 0.09.
Still for that read-out and setting: the result for B5 reads 0.26; that for B6, 0.26.
Consider B7, for which the Response was determined as 0.19.
On to B8, for which the Response worked out at 0.14.
With B9, the Response was determined as 0.16.
Still for that read-out and setting: the result for B10 reads 0.28; that for B11, 0.09; that for B12, 0.03.
As to B13, the Response is 0.24.
On the same count and under the same terms, for B14 the value was 0.12.
Still for that read-out and setting: for B15 the value was 0.17; for B16, 0.09.
For the molecule B17, the Response is 0.23.
Regarding B18, the Response came to 0.13.
For the molecule B19, the Response is 0.21.
Consider B20, for which the Response was 0.1.
Regarding B21, the Response stood at 0.2.
With B22, the Response stood at 0.09.
B23: the Response is 0.106.
B24: the Response is 0.25.

In general, Kd refers to the equilibrium constant for the complex coming apart. For orientation: koff means a measure of how fast the partners let go of each other. For orientation: kon means the second-order rate constant of association.
